From article PMC3462610 (Biochemical Journal, 2011)

What was measured:
GST–MKK7β1 = test: GST pull-down of WDR62 fragments with GST–MKK7β1; type: binding, human; settings: HEK-293T
WDR62 = test: GST pull-down of MKK4 with WDR62 fragments; type: binding, human; settings: HEK-293T, compared with MKK7–WDR62
HA–JNK2 [1] = test: Co-immunoprecipitation of HA–JNK2 with Myc-tagged WDR62 constructs, HEK-293T; type: binding, human; settings: quantified, means±S.D., three independent experiments
HA–JNK1 = test: GST pull-down with WDR62 1018-C–GST constructs; type: binding, human; settings: HEK-293T; for association with HA–JNK1: anti-HA/anti-pJNK
HA–JNK2 [2] = test: GST pull-down with WDR62 1018-C–GST constructs; type: binding, human; settings: HEK-293T; for association with HA–JNK2: anti-HA/anti-pJNK
His–JNK2 = test: In vitro protein-binding assay; set-up: species or system human; settings: purified proteins, 2 h at 37°C, amylose resin
His–MKK7β1 = test: In vitro protein-binding assay; set-up: species or system human; settings: purified proteins, 2 h at 37°C, amylose resin

B1: Myc-1232-C: Myc-tagged WDR62 aa 1232–1523 (protein)
chain: ISLGDSEGPIVATLAQPLRRPSSVGELASLGQELQAITTATTPSLDSEGQEPALRSWGNHEARANLRLTLSSACDGLLQPPVDTQPGVTVPAVSFPAPSPVEESALRLHGSAFRPSLPAPESPGLPAHPSNPQLPEARPGIPGGTASLLEPTSGALGLLQGSPARWSEPWVPVEALPPSPLELSRVGNILHRLQTTFQEALDLYRVLVSSGQVDTGQQQARTELVSTFLWIHSQLEAECLVGTSVAPAQALPSPGPPSPPTLYPLASPDLQALLEHYSELLVQAVRRKARGH
Question: With B1 as the molecule, how does the “association with MKK7β1, in words” value (GST–MKK7β1) read?
Answer: The value was “but not Myc-1232-C”.

B2: MKK4: HA-tagged human MKK4 (protein)
chain: MAAPSPSGGGGSGGGSGSGTPGPVGSPAPGHPAVSSMQGKRKALKLNFANPPFKSTARFTLNPNPTGVQNPHIERLRTHSIESSGKLKISPEQHWDFTAEDLKDLGEIGRGAYGSVNKMVHKPSGQIMAVKRIRSTVDEKEQKQLLMDLDVVMRSSDCPYIVQFYGALFREGDCWICMELMSTSFDKFYKYVYSVLDDVIPEEILGKITLATVKALNHLKENLKIIHRDIKPSNILLDRSGNIKLCDFGISGQLVDSIAKTRDAGCRPYMAPERIDPSASRQGYDVRSDVWSLGITLYELATGRFPYPKWNSVFDQLTQVVKGDPPQLSNSEEREFSPSFINFVNLCLTKDESKRPKYKELLKHPFILMYEERAVEVACYVCKILDQMPATPSSPMYVD
Question: For B2, which “MKK4–WDR62 interaction” value (WDR62) is on record?
Answer: The value was “weaker than the MKK7–WDR62 interaction”.

B3: Myc-1212-C: Myc-tagged WDR62 aa 1212–1523 (protein)
chain: PSTCSYMEATASSRARISRSISLGDSEGPIVATLAQPLRRPSSVGELASLGQELQAITTATTPSLDSEGQEPALRSWGNHEARANLRLTLSSACDGLLQPPVDTQPGVTVPAVSFPAPSPVEESALRLHGSAFRPSLPAPESPGLPAHPSNPQLPEARPGIPGGTASLLEPTSGALGLLQGSPARWSEPWVPVEALPPSPLELSRVGNILHRLQTTFQEALDLYRVLVSSGQVDTGQQQARTELVSTFLWIHSQLEAECLVGTSVAPAQALPSPGPPSPPTLYPLASPDLQALLEHYSELLVQAVRRKARGH
Question: With B3 as the molecule, how does the “association with MKK7β1, in words” value (GST–MKK7β1) read?
Answer: Its value is “efficiently associated”.

B4: Myc-N-1284: Myc-tagged WDR62 aa 1–1284 (protein)
chain: MAAVGSGGYARNDAGEKLPSVMAGVPARRGQSSPPPAPPICLRRRTRLSTASEETVQNRVSLEKVLGITAQNSSGLTCDPGTGHVAYLAGCVVVILDPKENKQQHIFNTARKSLSALAFSPDGKYIVTGENGHRPAVRIWDVEEKNQVAEMLGHKYGVACVAFSPNMKHIVSMGYQHDMVLNVWDWKKDIVVASNKVSCRVIALSFSEDSSYFVTVGNRHVRFWFLEVSTETKVTSTVPLVGRSGILGELHNNIFCGVACGRGRMAGSTFCVSYSGLLCQFNEKRVLEKWINLKVSLSSCLCVSQELIFCGCTDGIVRIFQAHSLHYLANLPKPHYLGVDVAQGLEPSFLFHRKAEAVYPDTVALTFDPIHQWLSCVYKDHSIYIWDVKDINRVGKVWSELFHSSYVWNVEVYPEFEDQRACLPSGSFLTCSSDNTIRFWNLDSSPDSHWQKNIFSNTLLKVVYVENDIQHLQDMSHFPDRGSENGTPMDVKAGVRVMQVSPDGQHLASGDRSGNLRIHELHFMDELVKVEAHDAEVLCLEYSKPETGLTLLASASRDRLIHVLNVEKNYNLEQTLDDHSSSITAIKFAGNRDIQMISCGADKSIYFRSAQQGSDGLHFVRTHHVAEKTTLYDMDIDITQKYVAVACQDRNVRVYNTVNGKQKKCYKGSQGDEGSLLKVHVDPSGTFLATSCSDKSISVIDFYSGECIAKMFGHSEIITSMKFTYDCHHLITVSGDSCVFIWHLGPEITNCMKQHLLEIDHRQQQQHTNDKKRSGHPRQDTYVSTPSEIHSLSPGEQTEDDLEEECEPEEMLKTPSKDSLDPDPRCLLTNGKLPLWAKRLLGDDDVADGLAFHAKRSYQPHGRWAERAGQEPLKTILDAQDLDCYFTPMKPESLENSILDSLEPQSLASLLSESESPQEAGRGHPSFLPQQKESSEASELILYSLEAEVTVTGTDSQYCRKEVEAGPGDQQGDSYLRVSSDSPKDQSPPEDSGESEADLECSFAAIHSPAPPPDPAPRFATSLPHFPGCAGPTEDELSLPEGPSVPSSSLPQTPEQEKFLRHHFETLTESPCRELFPAALGDVEASEAEDHFFNPRLSISTQFLSSLQKASRFTHTFPPRATQCLVKSPEVKLMDRGGSQPRAGTGYASPDRTHVLAAGKAEETLEAWRPPPPCLTSLASCVPASSVLPTDRNLPTPTSAPTPGLAQGVHAPSTCSYMEATASSRARISRSISLGDSEGPIVATLAQPLRRPSSVGELASLGQELQAITTATTPSLDSEGQEPA
Question: Which “reduction of precipitated JNK2 as compared with CS2 and CS5 full-length proteins” value (HA–JNK2 [1]) does the source give for B4 here?
Answer: Its value is 7 -fold.

B5: 1018-C–GST: wild-type WDR62-1018-C fused to GST (protein)
chain: RFATSLPHFPGCAGPTEDELSLPEGPSVPSSSLPQTPEQEKFLRHHFETLTESPCRELFPAALGDVEASEAEDHFFNPRLSISTQFLSSLQKASRFTHTFPPRATQCLVKSPEVKLMDRGGSQPRAGTGYASPDRTHVLAAGKAEETLEAWRPPPPCLTSLASCVPASSVLPTDRNLPTPTSAPTPGLAQGVHAPSTCSYMEATASSRARISRSISLGDSEGPIVATLAQPLRRPSSVGELASLGQELQAITTATTPSLDSEGQEPALRSWGNHEARANLRLTLSSACDGLLQPPVDTQPGVTVPAVSFPAPSPVEESALRLHGSAFRPSLPAPESPGLPAHPSNPQLPEARPGIPGGTASLLEPTSGALGLLQGSPARWSEPWVPVEALPPSPLELSRVGNILHRLQTTFQEALDLYRVLVSSGQVDTGQQQARTELVSTFLWIHSQLEAECLVGTSVAPAQALPSPGPPSPPTLYPLASPDLQALLEHYSELLVQAVRRKARGH
Question: What does the source list for B5?
Answer: association with HA–JNK1 (HA–JNK1): efficiently precipitated; association with HA–JNK2 (HA–JNK2 [2]): efficiently precipitated

B6: MBP-1018-C: MBP fused to human WDR62 1018-C fragment (protein)
chain: RFATSLPHFPGCAGPTEDELSLPEGPSVPSSSLPQTPEQEKFLRHHFETLTESPCRELFPAALGDVEASEAEDHFFNPRLSISTQFLSSLQKASRFTHTFPPRATQCLVKSPEVKLMDRGGSQPRAGTGYASPDRTHVLAAGKAEETLEAWRPPPPCLTSLASCVPASSVLPTDRNLPTPTSAPTPGLAQGVHAPSTCSYMEATASSRARISRSISLGDSEGPIVATLAQPLRRPSSVGELASLGQELQAITTATTPSLDSEGQEPALRSWGNHEARANLRLTLSSACDGLLQPPVDTQPGVTVPAVSFPAPSPVEESALRLHGSAFRPSLPAPESPGLPAHPSNPQLPEARPGIPGGTASLLEPTSGALGLLQGSPARWSEPWVPVEALPPSPLELSRVGNILHRLQTTFQEALDLYRVLVSSGQVDTGQQQARTELVSTFLWIHSQLEAECLVGTSVAPAQALPSPGPPSPPTLYPLASPDLQALLEHYSELLVQAVRRKARGH
Question: B6 was tested. Which “precipitation of His–JNK2” value (His–JNK2) did it give?
Answer: Its value is “efficiently precipitated His–JNK2”.

Question: What about the “precipitation of His–MKK7β1” value (His–MKK7β1) of the same molecule?
Answer: Its value is “efficiently precipitated”.

B7: 1018-CΔD–GST: WDR62-1018-C lacking the D domain fused to GST (protein)
chain: RFATSLPHFPGCAGPTEDELSLPEGPSVPSSSLPQTPEQEKFLRHHFETLTESPCRELFPAALGDVEASEAEDHFFNPRLSISTQFLSSLQKASRFTHTFPPRATQCLVKSPEVKLMDRGGSQPRAGTGYASPDRTHVLAAGKAEETLEAWRPPPPCLTSLASCVPASSVLPTDRNLPTPTSAPTPGLAQGVHAPSTCSYMEATASSRARISRSISLGDSEGPIVATLAQPLRRPSSVGELASLGQELQAITTATTPSLDSEGQEPALRSWGNHEASSACDGLLQPPVDTQPGVTVPAVSFPAPSPVEESALRLHGSAFRPSLPAPESPGLPAHPSNPQLPEARPGIPGGTASLLEPTSGALGLLQGSPARWSEPWVPVEALPPSPLELSRVGNILHRLQTTFQEALDLYRVLVSSGQVDTGQQQARTELVSTFLWIHSQLEAECLVGTSVAPAQALPSPGPPSPPTLYPLASPDLQALLEHYSELLVQAVRRKARGH
Question: What does the source list for B7?
Answer: association with HA–JNK1 (HA–JNK1): relatively weak interaction; pJNK1 in precipitate (HA–JNK1; anti-pJNK): no pJNK1/2 was detected; association with HA–JNK2 (HA–JNK2 [2]): relatively weak interaction; pJNK2 in precipitate (HA–JNK2 [2]; anti-pJNK): no pJNK1/2 was detected

B8: Myc-1018-CΔD (protein)
chain: RFATSLPHFPGCAGPTEDELSLPEGPSVPSSSLPQTPEQEKFLRHHFETLTESPCRELFPAALGDVEASEAEDHFFNPRLSISTQFLSSLQKASRFTHTFPPRATQCLVKSPEVKLMDRGGSQPRAGTGYASPDRTHVLAAGKAEETLEAWRPPPPCLTSLASCVPASSVLPTDRNLPTPTSAPTPGLAQGVHAPSTCSYMEATASSRARISRSISLGDSEGPIVATLAQPLRRPSSVGELASLGQELQAITTATTPSLDSEGQEPALRSWGNHEASSACDGLLQPPVDTQPGVTVPAVSFPAPSPVEESALRLHGSAFRPSLPAPESPGLPAHPSNPQLPEARPGIPGGTASLLEPTSGALGLLQGSPARWSEPWVPVEALPPSPLELSRVGNILHRLQTTFQEALDLYRVLVSSGQVDTGQQQARTELVSTFLWIHSQLEAECLVGTSVAPAQALPSPGPPSPPTLYPLASPDLQALLEHYSELLVQAVRRKARGH
Question: B8 was tested. Which “association with MKK7β1, in words” value (GST–MKK7β1) did it give?
Answer: Its value is “efficiently precipitated with GST–MKK7β1”.

B9: Myc-1018-1284: Myc-tagged WDR62 aa 1018–1284 (protein)
chain: RFATSLPHFPGCAGPTEDELSLPEGPSVPSSSLPQTPEQEKFLRHHFETLTESPCRELFPAALGDVEASEAEDHFFNPRLSISTQFLSSLQKASRFTHTFPPRATQCLVKSPEVKLMDRGGSQPRAGTGYASPDRTHVLAAGKAEETLEAWRPPPPCLTSLASCVPASSVLPTDRNLPTPTSAPTPGLAQGVHAPSTCSYMEATASSRARISRSISLGDSEGPIVATLAQPLRRPSSVGELASLGQELQAITTATTPSLDSEGQEPA
Question: B9 was tested. Which “association with MKK7β1, in words” value (GST–MKK7β1) did it give?
Answer: The value was “efficiently associated”.
